Molecular target: T1, 人CD22胞外段缀合His标签 (hCD22-His, ACRO, CD2-H52H8) (human, UniProt P20273 20-687)
T1 construct: extracellular domain; Bought recombinant protein; also called 人类hCD22-His; not shown: His tag
T1 sequence (looked up): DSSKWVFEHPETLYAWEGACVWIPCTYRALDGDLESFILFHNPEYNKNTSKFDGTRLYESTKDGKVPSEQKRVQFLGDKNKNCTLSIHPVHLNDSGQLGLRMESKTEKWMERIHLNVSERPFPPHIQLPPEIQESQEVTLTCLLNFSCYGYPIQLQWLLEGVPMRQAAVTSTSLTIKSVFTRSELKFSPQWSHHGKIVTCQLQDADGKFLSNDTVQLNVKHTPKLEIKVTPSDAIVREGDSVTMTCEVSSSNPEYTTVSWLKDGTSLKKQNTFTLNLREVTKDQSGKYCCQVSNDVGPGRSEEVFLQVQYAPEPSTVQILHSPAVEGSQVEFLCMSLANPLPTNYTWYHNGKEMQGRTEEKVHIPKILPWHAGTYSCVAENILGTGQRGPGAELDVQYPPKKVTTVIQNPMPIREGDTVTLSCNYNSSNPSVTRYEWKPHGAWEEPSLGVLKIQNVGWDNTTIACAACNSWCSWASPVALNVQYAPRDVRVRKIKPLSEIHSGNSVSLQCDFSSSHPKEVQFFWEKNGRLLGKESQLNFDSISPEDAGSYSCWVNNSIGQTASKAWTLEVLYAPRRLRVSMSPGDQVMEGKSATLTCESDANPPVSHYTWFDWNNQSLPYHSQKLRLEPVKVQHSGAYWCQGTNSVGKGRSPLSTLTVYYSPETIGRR
Experiment: ELISA, hCD22-His coated at 2 ug/ml, 3-fold antibody dilutions

binding result: binds
B1: 5CD22-111-1-C3 (antibody, mouse IgG1, kappa, V domains shown)
VH: EVKLEESGGGLVQPGGFMKLSCVASGFTFSNYWMNWVRQSPERGLEWVAEIRLKSNDYATHYAESVKGRFTISRDDSKSNVYLQMNNLRAEDTGIYYCTRVYYYGRDYAMDYWGQGTSVTVSS
VL: QIVLTQSPAIMSASLGERVTMTCTASSSVSSIYLHWYQQKPGSSPKLWIYSTSNLASGVPGRFSGSGSGTSYSLTISSMEAEDAATYYCHQYHRSPRTFGGGTKLEIKR
